In the DeepSol protein solubility set:

Assay: soluble on expression in E. coli; label from the status in PepcDB or PDB records

Row | Sequence | soluble on expression in E. coli
1 | MAMQIKGVIFDFDGTLLDSVELRITAWKKAFQNFGVNVPEDLIRPMIGYPGIDLAKKFVKNPLDVEMLQEDYFLKNIESAKFFQDVIPTLAELRKRGIKTAVVTSTRRIVMQKFSLQVDHVVTIDDVSKGKPDPEPYLKALKMMGIPAEECIVVGDIENDLIPAKKLRCISVLVKHGRDISSNYADYEIENIADILNVIDHLAEKNNR | not soluble
2 | MAMSFEWPWQYRFPPFFTLQPNVDTRQKQLAAWCSLVLSFCRLHKQSSMTVMEAQESPLFNNVKLQRKLPVESIQIVLEELRKKGNLEWLDKSKSSFLIMWRRPEEWGKLIYQWVSRSGQNNSVFTLYELTNGEDTEDEEFHGLDEATLLRALQALQQEHKAEIITVSDGRGVKFF | soluble
3 | MAMTGVLRPGHAQVRVLNLEEGIHFYRNVLGLVETGRDDQGRVYFKCWDERDHSCYIIREADTAGIDFFGFKVLDKATLEKLDADLQAYGLTTTRIPAGEMLETGERVRFELPSGHLIELYAEKTCVGNGISEVNPAPWNAQREHGIAPIQLDHCLLYGPNIAEVQKIFTEVLGFYLVERVLSPDGDSDMGIWLSCSHKVHDIAFVEYPEKGKLHHCSFLLESWEQVLRAGDIMSMNEVNVDIGPTRHGVTRGCTIYAWDPSGNRFETFMGGYHPYPDYEPLSWTYDNFAQGLDYPQRKLHETFMTVVT | soluble
4 | MANDEQQQLLNKIVRDDSQDKQVLLMINGAAGTGKTFLIKLIENSMNRSVRKRVVLMTGSTGKAAKAIGGRTLHCTIGLPNEKPEDLERLKYQAFICVTTRLIIIDEITLLASWHLDATDMVLKRTPKRTDALFGGLSIILVGDLRQLNLGGWRGKKQIDTVFIKVGGYPDPISCQNVCD | not soluble
5 | MANEVIKCKAAVAWEAGKPLSIEEIEVAPPKAHEVRIKIIATAVCHTDAYTLSGADPEGCFPVILGHEGAGIVESVGEGVTKLKAGDTVIPLYIPQCGECKFCLNPKTNLCQKIRVTQGKGLMPDGTSRFTCKGKTILHYMGTSTFSEYTVVADISVAKIDPLAPLDKVCLLGCGISTGYGAAVNTAKLEPGSVCAVFGLGGVGLAVIMGCKVAGASRIIGVDINKDKFARAKEFGATECINPQDFSKPIQEVLIEMTDGGVDYSFECIGNVKVMRAALEACHKGWGVSVVVGVAASGEEIATRPFQLVTGRTWKGTAFGGWKSVESVPKLVSEYMSKKIKVDEFVTHNLSFDEINKAFELMHSGKSIRTVVKI | soluble
6 | MANFESSVKVIPYSQERVYAKLSDLSNLESVKGRLPEDKIQDLSFDSDTLSFSVSPIGQLTLQIVEREPCKCIKLATTNSPLPFNMWIQLVSTAEEECKLKVTISMDINPFMKAMVQKPLQDGLEKMVEMLSMINYLEHHHHHH | soluble
7 | MANFIIELSADESFNIVINDLKPIETYRVEMFLSDYYCINAPMRLAHDVLWKSTATFVSDTNGIINISQTPSCSGSYEGISTMGLFFNAKPLTNKRKKLPNSISKIPLLDHFFVGIKIMQGNTVIAERTFTRHYMSSQISHQDIYGKHFQGRLFYDKKAIKTPSIDYCER | not soluble
8 | MANHELDQLRKQVDEINLQLLHLLNKRGEIVQKIGEQKQVQGTKRFDPVREREVLDMIAENNEGPFETSTVQHIFKTIFKASLELQEDDNRKALLVSRKKKQENTIVDVKGELIGNGTQTFIMGPCAVESLEQVRQVGQAMKDQGLKLMRGGAFKPRTSPYDFQGLGVEGLQILRQVADEFDLAIISEILNPNDVEMALDYVDVIQVGARNMQNFDLLRAVGKVNKPVLLKRGLAATIDEFINAAEYIIAQGNDQIILCERGIRTYERATRNTLDISAVPILKKETHLPVVVDVTHSTGRRDLLLPTAKAALAIGADAVMAEVHPDPAVALSDSAQQMDIPEFHRFMEELKGFKNKLS | not soluble
9 | MANQIYLFSLICLSVLLCQSYTVSSFQKSLDLAKPCKRFVLHLHDIAYDGDNAANATSAAIVNPLGLGDFSFGKFVIMDDPVTMDQNYLSKPVARVQGFFCYHGKATYDAWIAWTVVFNSTQHKGAFTIMGENPFMEPTRDLPIVGGTGDFIMTRGIATLTTDHIDGSKYFRVKLDIKLYECYH | soluble
10 | MANSLRNVNDYDPFKYRPSYFDLEAPTESFALGKFVDAIEVKQMALDAFSESSMVSIATSQLPKTAYTATSFIESEYYSFPYLFNDQKYYWDYFDYKIPAADFAVLELELDLNNQQDQQIKDHFIDPAIKAYKQLGDSTGLFATKPLTEYQNDTHYLLGYPVVPTDHTQLWECKQGAERFSYGYFYSNMARLTKNLRQGDPNAGSKTHIEYSNELLDKDSMDQGIVR | not soluble
